Data reported in PMC6484116, “The NifZ accessory protein has an equivalent function in maturation of both nitrogenase MoFe protein P-clusters” (The Journal of Biological Chemistry, 2019).
Values joined by “and” are separate entries in the source; they are usually repeats but may differ in a detail not shown here. Identical values can stand only once.

Columns and labels:
[1] = biological target: T1, MoFe protein^HisΔZ (His-tagged nitrogenase MoFe protein produced in a nifZ-deletion strain) (Azotobacter vinelandii, UniProt P07328 1-492; P07329 1-523); test: affinity purification with mass spectrometry; MoFe protein^HisΔZ isolated by IMAC from extract of cells derepressed 4 h, then Q-Sepharose anion exchange (200-500 mM NaCl gradient); fractions on SDS-PAGE, Coomassie, densitometry; bands identified by MALDI; conditions: partners not purified
T1 construct: nitrogenase MoFe protein α-subunit (NifD), Azotobacter vinelandii; polyhistidine-encoding tag incorporated into the N-terminal coding region; nitrogenase MoFe protein β-subunit (NifK), Azotobacter vinelandii; A mixed population: αβ-units hold either an immature P-cluster without FeMo-cofactor or a mature P-cluster with FeMo-cofactor; also called MoFe^His protein; α2β2 heterotetramer; source: A. …
T1 sequence (looked up) 1: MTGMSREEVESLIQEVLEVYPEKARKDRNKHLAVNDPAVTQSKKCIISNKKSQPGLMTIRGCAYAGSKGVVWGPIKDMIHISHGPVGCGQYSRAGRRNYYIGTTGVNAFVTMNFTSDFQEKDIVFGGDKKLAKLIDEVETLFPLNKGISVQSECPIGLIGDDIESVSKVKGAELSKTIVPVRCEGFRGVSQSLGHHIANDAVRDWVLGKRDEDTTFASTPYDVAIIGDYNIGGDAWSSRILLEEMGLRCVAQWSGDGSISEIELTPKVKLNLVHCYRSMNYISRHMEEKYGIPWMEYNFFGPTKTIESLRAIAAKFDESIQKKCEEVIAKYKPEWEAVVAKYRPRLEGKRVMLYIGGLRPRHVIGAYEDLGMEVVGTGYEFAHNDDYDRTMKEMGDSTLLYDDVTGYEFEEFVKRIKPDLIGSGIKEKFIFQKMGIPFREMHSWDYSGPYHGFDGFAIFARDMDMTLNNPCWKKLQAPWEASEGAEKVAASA
T1 sequence (looked up) 2: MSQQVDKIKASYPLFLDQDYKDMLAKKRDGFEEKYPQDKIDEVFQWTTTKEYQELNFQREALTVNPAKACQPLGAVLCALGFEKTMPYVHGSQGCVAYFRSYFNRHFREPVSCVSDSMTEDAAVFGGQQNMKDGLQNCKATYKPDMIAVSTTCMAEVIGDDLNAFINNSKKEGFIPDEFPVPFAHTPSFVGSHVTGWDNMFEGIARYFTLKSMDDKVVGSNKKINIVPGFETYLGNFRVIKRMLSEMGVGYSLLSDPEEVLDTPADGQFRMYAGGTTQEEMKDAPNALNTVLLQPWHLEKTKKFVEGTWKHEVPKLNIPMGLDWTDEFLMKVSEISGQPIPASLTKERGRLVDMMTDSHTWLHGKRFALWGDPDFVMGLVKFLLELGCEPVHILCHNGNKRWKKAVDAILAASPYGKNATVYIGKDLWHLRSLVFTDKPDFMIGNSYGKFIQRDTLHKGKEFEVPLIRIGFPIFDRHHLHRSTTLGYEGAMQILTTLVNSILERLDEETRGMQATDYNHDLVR

[2] = biological target: T2, MoFe protein^StrΔZ (Strep-tagged nitrogenase MoFe protein produced in a nifZ-deletion strain) (Azotobacter vinelandii, UniProt P07328 1-492; P07329 1-523); test: affinity purification with mass spectrometry; MoFe protein^StrΔZ isolated on Strep-Tactin (STAC) from cell extract, then Q-Sepharose anion exchange (200-500 mM NaCl gradient); fractions on SDS-PAGE, Coomassie, densitometry; bands identified by MALDI; also after incubating the extract 0-240 min with 36 mM Na2S2O4 at 30 °C (NifW slowly dissociates); conditions: partners not purified
T2 construct: nitrogenase MoFe protein α-subunit (NifD), Azotobacter vinelandii; Strep-encoding tag incorporated into the N-terminal coding region; nitrogenase MoFe protein β-subunit (NifK), Azotobacter vinelandii; A mixed population: αβ-units hold either an immature P-cluster without FeMo-cofactor or a mature P-cluster with FeMo-cofactor; also called MoFe^StrΔZ; α2β2 heterotetramer; source: A. vinelandii …
T2 sequence (looked up) 1: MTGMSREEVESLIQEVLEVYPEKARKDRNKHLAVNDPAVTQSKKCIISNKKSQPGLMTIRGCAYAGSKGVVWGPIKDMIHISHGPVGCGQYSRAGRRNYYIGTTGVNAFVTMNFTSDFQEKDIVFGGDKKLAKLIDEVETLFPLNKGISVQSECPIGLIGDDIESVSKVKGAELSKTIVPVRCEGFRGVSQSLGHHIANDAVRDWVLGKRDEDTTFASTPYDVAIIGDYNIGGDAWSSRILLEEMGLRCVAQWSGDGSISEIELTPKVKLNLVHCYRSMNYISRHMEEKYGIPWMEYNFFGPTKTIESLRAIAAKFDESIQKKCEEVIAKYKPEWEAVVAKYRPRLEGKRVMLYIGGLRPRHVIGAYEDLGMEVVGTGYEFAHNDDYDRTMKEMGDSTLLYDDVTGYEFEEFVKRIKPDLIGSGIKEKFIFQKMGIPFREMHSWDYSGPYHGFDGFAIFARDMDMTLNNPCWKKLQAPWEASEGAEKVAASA
T2 sequence (looked up) 2: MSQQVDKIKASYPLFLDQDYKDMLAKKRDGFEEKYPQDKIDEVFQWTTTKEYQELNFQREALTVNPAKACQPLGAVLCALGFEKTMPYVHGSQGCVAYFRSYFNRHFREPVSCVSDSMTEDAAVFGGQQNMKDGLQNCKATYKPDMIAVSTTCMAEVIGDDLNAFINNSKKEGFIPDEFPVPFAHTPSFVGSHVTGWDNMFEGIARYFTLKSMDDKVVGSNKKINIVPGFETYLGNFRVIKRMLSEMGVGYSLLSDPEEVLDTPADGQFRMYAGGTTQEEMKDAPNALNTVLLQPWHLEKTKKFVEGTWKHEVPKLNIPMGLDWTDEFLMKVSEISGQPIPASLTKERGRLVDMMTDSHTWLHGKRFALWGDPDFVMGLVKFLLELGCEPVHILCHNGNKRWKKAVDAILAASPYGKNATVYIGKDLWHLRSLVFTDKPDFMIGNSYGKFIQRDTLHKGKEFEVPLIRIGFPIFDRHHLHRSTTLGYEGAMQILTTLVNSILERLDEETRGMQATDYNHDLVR

B1: NifW (accessory protein, endogenous) (natural protein, UniProt P14888 1-115, looked up)
chain: MTVQPFSPDSDLTLDEAMDELVSAEDFLEFFGVPFDQDVVHVNRLHIMQRYHDYLSKAGDLDEHDDQARYAVFQKLLARAYLDFVESDALTEKVFKVFRMHEPQKTFVSIDQLLS
notes: NifW, Azotobacter vinelandii; also called NifW assembly factor; source: endogenous, A. vinelandii DJ1182 or DJ2111 cell extract; co-purified with MoFe protein
stoichiometry N [1]: ~1 NifW per α2β2 heterotetramer and 2 NifW per α2β2 heterotetramer | stoichiometry N [2]: ~1 NifW per α2β2 heterotetramer and ~2 NifW per α2β2 heterotetramer
